Key:
[1] = target: β-amyloid peptide (1-42) conjugated to BSA; assay: competition ELISA on coated Aβ1-42-BSA against biotinylated Mu266, first set of three experiments
[2] = target: β-amyloid peptide (1-42) conjugated to BSA; assay: competition ELISA on coated Aβ1-42-BSA against biotinylated Mu266, second set of three experiments
Aβ 1-40 peptide (human) = assay: KinExA 3000, equilibrium in solution with human soluble Abeta (1-40), 37° C.

| IC50 [1] [µg/mL] | IC50 [2] [µg/mL] | Kd (Aβ 1-40 peptide (human)) [nM] | Substance |
| --- | --- | --- | --- |
| 4.7 | 3.87 | – | Mouse monoclonal antibody 266 (Mu266) |
| – | – | 0.24 | m266-Fab |
